These results are taken from article PMC4801485 (Biochemistry, 2015).

“Also recorded” adds a separate entry of the source. Where no end group is shown, it is not given here.

Test [1] has as its target T1, CypA (Homo sapiens, UniProt P62937). The experiment in a line: 15N TROSY CPMG-RD of ligand-saturated CypA. The format is biochemical.
The target in test [2] is T1, CypA. To be noted: percent weaker than GSFGPDLRAGD; cited from earlier work.
For test [3], the target named is T1, CypA. To be noted: cited from earlier work.
[4] abbreviates: 2H,15N CypA, saturating TA-peptide (6 mM), 10 °C.

T1 sequence (P62937 whole entry): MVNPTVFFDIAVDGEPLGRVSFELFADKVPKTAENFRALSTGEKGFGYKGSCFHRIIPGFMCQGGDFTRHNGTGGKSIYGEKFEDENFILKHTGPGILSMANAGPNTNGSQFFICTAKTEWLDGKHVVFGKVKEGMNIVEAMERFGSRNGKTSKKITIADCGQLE

“TA-peptide: substrate for which the G-P peptide bond in the peptide is replaced by a thioamide bond (GSFGPDLRAGD; also: G-P peptide bond replaced by thioamide bond)”: in test [1] (setting [4]), the “chemical exchange rate throughout most of the active site” value is recorded as ~ 300 s^−1; the “rate of motions, loop residues ~65–78 and ~108–110” value is ~ 2000 s^−1. The “active site dynamics as compared to CypA:peptide complex” value in test [1] (2H,15N CypA, saturating TA-peptide, much of the active site) is reported as “slowed dramatically”. The “binding relative to the standard GSFGPDLRAGD peptide (weaker)” value in test [2] is ~ 50%. Besides, the “isomerization by CypA” value in test [3] is recorded as “not isomerized by CypA”.

As to “cyclosporine A [CsA, reference compound]”, the “exchange throughout most of the active site (CsA)” value in test [1] (2H,15N CypA (0.5 mM), CsA 0.7 mM, 10 °C) is on record as “quenched by CsA throughout most of the active site; also recorded: completely quenched”.
